Reference: patent US20190038582A1 (published 2019)
Like-named read-outs stand apart in the source and are kept apart here. Blank lines part the entries; values can stand above or below the binder they belong to.

Legend:
[1] = target: T1, dephosphorylated Aurora A kinase (Aurora A^122-403) (human, UniProt O14965 122-403); assay: ITC
T1 construct: also called AurA; deP Aurora A^122-403
T1 sequence: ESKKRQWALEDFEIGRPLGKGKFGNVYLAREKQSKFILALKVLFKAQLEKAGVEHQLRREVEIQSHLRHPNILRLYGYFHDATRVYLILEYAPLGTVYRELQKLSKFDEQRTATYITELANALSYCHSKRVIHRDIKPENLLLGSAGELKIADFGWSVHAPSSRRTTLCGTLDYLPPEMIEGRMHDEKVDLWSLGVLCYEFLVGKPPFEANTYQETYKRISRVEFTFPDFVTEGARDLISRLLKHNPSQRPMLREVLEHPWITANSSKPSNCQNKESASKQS
Procedure: Error bars in FIGS. 18D and 18F represent the standard error for the estimate of Kd and are a measure of the goodness of fit of the data. Error bars in FIG. 18C were calculated through jackknifing.
(§1) Titrations were carried out using Nano ITC isothermal titration calorimeter (TA Instruments) and analyzed via the NanoAnalyze software using the independent fit model. Injectant was added in 1 μl volume, every 180 s, with a constant stirring speed at 350 rpm and at 25° C.

[2] = target: T2, dephosphorylated Aurora A kinase (Aurora A^122-403) (UniProt O14965 122-403); assay: ITC
T2 chain: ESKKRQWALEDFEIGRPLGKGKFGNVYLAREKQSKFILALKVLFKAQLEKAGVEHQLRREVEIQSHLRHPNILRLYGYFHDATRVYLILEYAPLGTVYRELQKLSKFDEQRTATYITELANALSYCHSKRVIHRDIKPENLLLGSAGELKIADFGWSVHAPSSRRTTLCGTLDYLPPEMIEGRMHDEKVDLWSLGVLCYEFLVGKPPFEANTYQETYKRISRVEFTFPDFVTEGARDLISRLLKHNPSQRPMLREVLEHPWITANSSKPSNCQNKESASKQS

[3] = target: T2, dephosphorylated Aurora A kinase …; assay: ITC
[4] = target: T3, Aurora A kinase in HEK293 cells (human, UniProt O14965 1-403); assay: immunofluorescence co-localization in HEK293 cells
T3 construct: not on the cell surface; also called Aurora A kinase (endogenous, HEK293)
T3 sequence: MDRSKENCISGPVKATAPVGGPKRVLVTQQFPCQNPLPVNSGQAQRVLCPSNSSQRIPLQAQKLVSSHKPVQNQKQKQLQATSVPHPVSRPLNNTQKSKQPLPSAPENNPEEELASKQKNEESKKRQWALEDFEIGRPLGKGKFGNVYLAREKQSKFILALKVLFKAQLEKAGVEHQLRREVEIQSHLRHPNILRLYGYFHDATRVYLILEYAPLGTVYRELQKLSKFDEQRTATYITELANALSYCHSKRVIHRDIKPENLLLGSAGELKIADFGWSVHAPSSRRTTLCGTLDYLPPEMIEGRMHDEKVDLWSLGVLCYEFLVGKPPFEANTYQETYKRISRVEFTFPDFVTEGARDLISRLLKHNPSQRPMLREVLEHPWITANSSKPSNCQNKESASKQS

[5] = target: T2, dephosphorylated Aurora A kinase …; assay: ITC
[6] = target: T1, dephosphorylated Aurora A kinase …; assay: told with the kinase assay results (FIG. 9); method of the affinity not named there
[7] = target: T2, dephosphorylated Aurora A kinase …; assay: ITC
[8] = target: T2, dephosphorylated Aurora A kinase …; assay: ITC
[9] = target: T1, dephosphorylated Aurora A kinase …; assay: ITC; Aurora A pre-saturated with barasertib
Procedure: as §1

TPX2 = target: T4, TPX2
T4 chain: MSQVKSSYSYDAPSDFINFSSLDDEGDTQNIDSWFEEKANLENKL

B3: monobody Mb60 (AuroraA_60) (designed binder)
chain: GSVSSVPTKLEVVAATPTSLLISWDAPAVTVVHYVITYGETGGNSPVQEFTVPGSKSTATISGLKPGVDYTITVYAIDFYWGSYSPISINYRT
notes: FN3-scaffold monobody; also called Mb2 (alternative name herein)
binding result [1]: binds
Kd [2]: 1000 nM

B4: sGFP-Mb60 fusion polypeptide (designed binder)
chain: GSVSSVPTKLEVVAATPTSLLISWDAPAVTVVHYVITYGETGGNSPVQEFTVPGSKSTATISGLKPGVDYTITVYAIDFYWGSYSPISINYRT
notes: also called sGFP-Mb2 (aka Mb60); not shown: supercharged GFP (sGFP)
binding result [1]: binds
Kd [7]: 2500 nM
binding result [4]: binds

B8: Aurora A T288V mutant (A^122-403 T288V) (protein)
chain: ESKKRQWALEDFEIGRPLGKGKFGNVYLAREKQSKFILALKVLFKAQLEKAGVEHQLRREVEIQSHLRHPNILRLYGYFHDATRVYLILEYAPLGTVYRELQKLSKFDEQRTATYITELANALSYCHSKRVIHRDIKPENLLLGSAGELKIADFGWSVHAPSSRRTVLCGTLDYLPPEMIEGRMHDEKVDLWSLGVLCYEFLVGKPPFEANTYQETYKRISRVEFTFPDFVTEGARDLISRLLKHNPSQRPMLREVLEHPWITANSSKPSNCQNKESASKQS
kinase activity (phosphorylation of AP peptide) (TPX2): greatly increased its kinase activity

B9: phosphorylated Aurora A kinase (protein)
chain: ESKKRQWALEDFEIGRPLGKGKFGNVYLAREKQSKFILALKVLFKAQLEKAGVEHQLRREVEIQSHLRHPNILRLYGYFHDATRVYLILEYAPLGTVYRELQKLSKFDEQRTATYITELANALSYCHSKRVIHRDIKPENLLLGSAGELKIADFGWSVHAPSSRRTTLCGTLDYLPPEMIEGRMHDEKVDLWSLGVLCYEFLVGKPPFEANTYQETYKRISRVEFTFPDFVTEGARDLISRLLKHNPSQRPMLREVLEHPWITANSSKPSNCQNKESASKQS
kinase activity (phosphorylation of AP peptide) (TPX2): only slightly increased kinase activity

B10: monobody Mb56 (AuroraA_56) (designed binder)
chain: GSVSSVPTKLEVVAATPTSLLISWDAMSDWYYWVDYYRITYGETGGNSPVQEFTVPGSYSTATISGLKPGVDYTITVYASDDVWGDYSPISINYRT
notes: FN3-scaffold monobody; also called Mb3
binding result [1]: binds
Kd [8]: 163 nM

B11: monobody Mb44 (AuroraA_44) (designed binder)
chain: GSVSSVPTKLEVVAATPTSLLISWDAPAVTVDFYVITYGETGGYSYPWQEFEVPGSKSTATISGLKPGVDYTITVYADYGQYFYSPISINYRT
notes: FN3-scaffold monobody; also called M44
Kd [8]: 3280 nM
fold weakening of binding affinity (Aurora A pre-saturated with barasertib against Aurora A alone) [9]: 5 fold

Second part, the binder after the results:

Kd [1]: ~5000 nM
Kd [2]: 5400 nM
Binder: MSQVKSSYSYDAPSDFINFSSLDDEGDTQNIDSWFEEKANLENKL (other, also called TPX2 polypeptide) [TPX2]

Kd [3]: 27.4 nM
binding result [4]: binds
B1: sGFP-Mb6 fusion polypeptide (designed binder)
chain: GSVSSVPTKLEVVAATPTSLLISWDAFGHQYEPVYYYRITYGETGGNSPVQEFTVPGYYSTATISGLKPGVDYTITVYAWYVDGSYSSPISINYRT
notes: also called neutral sGFP-Mb6; not shown: supercharged GFP (sGFP)

Kd [5]: 8.7 nM
binding result [6]: binds
B2: monobody Mb2 (aka Mb6) (AuroraA_2) (designed binder)
chain: GSVSSVPTKLEVVAATPTSLLISWDAFGHQYEPVYYYRITYGETGGNSPVQEFTVPGYYSTATISGLKPGVDYTITVYAWYVDGSYSSPISINYRT
notes: also called neutral monobody

binding result [1]: binds
Kd [2]: 175 nM
B5: monobody Mb54 (AuroraA_54) (designed binder)
chain: GSVSSVPTKLEVVAATPTSLLISWDAQTYQMYDYVSYYRITYGETGGNSPVQEFTVPGYYSTATISGLKPGVDYTITVYAEGYYSSYSPISINYRT
notes: FN3-scaffold monobody; also called Mb1

binding result [1]: binds
Kd [3]: 121 nM
binding result [4]: binds
B6: sGFP-Mb54 fusion polypeptide (designed binder)
chain: GSVSSVPTKLEVVAATPTSLLISWDAQTYQMYDYVSYYRITYGETGGNSPVQEFTVPGYYSTATISGLKPGVDYTITVYAEGYYSSYSPISINYRT
notes: also called sGFP-Mb54 (aka Mb1); sGFP-Mb1; not shown: supercharged GFP (sGFP)

Kd [8]: 76.9 nM
fold weakening of binding affinity (Aurora A pre-saturated with barasertib against Aurora A alone) [9]: 2.8 fold
B7: monobody Mb51 (AuroraA_51) (designed binder)
chain: GSVSSVPTKLEVVAATPTSLLISWDAKPMSYEPVYYYRITYGETGGNSPVQEFTVPGYYSTATISGLKPGVDYTITVYADSMSSYYYSPISINYRT
notes: FN3-scaffold monobody
